The term Kd denotes the concentration at which binding is half-saturated.

2 molecules from paper PMC12079668 can be followed below.

The target of assay [1] is nanobody NbB7. Put plainly: ITC. To be noted: chain shown with the change.
For assay [2], the target named is T1, zebrafish Cavin4a HR1 domain (residues 16-123) (zebrafish) (UniProt A1L260).
T1 sequence: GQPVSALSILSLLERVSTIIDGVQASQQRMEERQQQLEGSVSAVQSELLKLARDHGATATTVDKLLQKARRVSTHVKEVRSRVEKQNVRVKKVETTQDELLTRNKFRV
Description: ITC; NbA12 at 500 μM or NbB7 at 400 μM titrated into 30 μM (monomer) cavin HR1 domain or His-MBP full-length mC1; GF150 buffer (20 mM HEPES pH 7.4, 150 mM NaCl), 25°C; fitted with a 1:1 binding ratio. Background: Isothermal titration calorimetry measures the heat released or taken up as one component is titrated into another.

B1: mouse Cavin1 HR1 domain (residues 45–155), His-Ub-tagged, O54724 K115Q; R117Q; K118Q; K124Q; R127Q (protein)
chain: LIKSDQVNGVLVLSLLDKIIGAVDQIQLTQAQLEERQAEMEGAVQSIQGELSKLGKAHATTSNTVSKLLEQVQQVSVNVQTVQGSLERQAGQIKKLEVNEAELLRRRNFKV
The molecule B1 yielded a dissociation constant Kd in assay [1] of 892 nM.

B2: Nanobody NbB7 (VHH)
VHH: QVQLQESGGGLVQAGGSLRLSCAVSGIRVNVNAMYWYRQAPGKQRELVAIITTFGSTNYADSAKGRFTISRDNTKNTVYLQMDNLKPEDTAVYYCNAPQFTDRYWGQGTQVTVSS
B2: the Kd in assay [2] worked out at 1490 nM.
